Experimental findings from article PMC5433770, “Effect of N-terminal region of nuclear Drosophila melanogaster small heat shock protein DmHsp27 on function and quaternary structure” (PLoS ONE, 2017) are described below.

Substitutions are numbered along the chain they refer to. Numbers in names are those of the source.

B1: Drosophila melanogaster small heat shock protein DmHsp27, wild type (natural protein, UniProt P02518 1-213, looked up)
chain: MSIIPLLHLARELDHDYRTDWGHLLEDDFGFGVHAHDLFHPRRLLLPNTLGLGRRRYSPYERSHGHHNQMSRRASGGPNALLPAVGKDGFQVCMDVSQFKPNELTVKVVDNTVVVEGKHEEREDGHGMIQRHFVRKYTLPKGFDPNEVVSTVSSDGVLTLKAPPPPSKEQAKSERIVQIQQTGPAHLSVKAPAPEAGDGKAENGSGEKMETSK
notes: DmHsp27 (Hsp27), Drosophila melanogaster, wild-type cDNA; also called DmHsp27WT; Drosophila melanogaster Hsp27; source: E. coli BL21 (DE3) pLysS, purified (Ni-NTA, SEC on Superose 6)
B2: DmHsp27 G32A (natural protein, Drosophila melanogaster, UniProt P02518 1-213, looked up)
chain: B1 chain with G32A
notes: DmHsp27 (Hsp27), Drosophila melanogaster, with G32A; source: E. coli BL21 (DE3) pLysS, purified (Ni-NTA, SEC on Superose 6)
B3: DmHsp27 G30A (natural protein, Drosophila melanogaster, UniProt P02518 1-213, looked up)
chain: B1 chain with G30A
notes: DmHsp27 (Hsp27), Drosophila melanogaster, with G30A; source: E. coli BL21 (DE3) pLysS, purified (Ni-NTA, SEC on Superose 6)
B4: DmHsp27 S75A (natural protein, Drosophila melanogaster, UniProt P02518 1-213, looked up)
chain: B1 chain with S75A
notes: DmHsp27 (Hsp27), Drosophila melanogaster, with S75A; source: E. coli BL21 (DE3) pLysS, purified (Ni-NTA, SEC on Superose 6)
B5: DmHsp27 S58A (natural protein, Drosophila melanogaster, UniProt P02518 1-213, looked up)
chain: B1 chain with S58A
notes: DmHsp27 (Hsp27), Drosophila melanogaster, with S58A; source: E. coli BL21 (DE3) pLysS, purified (Ni-NTA, SEC on Superose 6)
B6: DmHsp27 F31Y (natural protein, Drosophila melanogaster, UniProt P02518 1-213, looked up)
chain: B1 chain with F31Y
notes: DmHsp27 (Hsp27), Drosophila melanogaster, with F31Y; source: E. coli BL21 (DE3) pLysS, purified (Ni-NTA, SEC on Superose 6)
B7: DmHsp27 F29Y (natural protein, Drosophila melanogaster, UniProt P02518 1-213, looked up)
chain: B1 chain with F29Y
notes: DmHsp27 (Hsp27), Drosophila melanogaster, with F29Y; source: E. coli BL21 (DE3) pLysS, purified (Ni-NTA, SEC on Superose 6)
B8: DmHsp27 S58/75A (natural protein, Drosophila melanogaster, UniProt P02518 1-213, looked up)
chain: B1 chain with S58A, S75A
notes: DmHsp27 (Hsp27), Drosophila melanogaster, with S58A and S75A; source: E. coli BL21 (DE3) pLysS, purified (Ni-NTA, SEC on Superose 6)
B9: DmHsp27 F31A (natural protein, Drosophila melanogaster, UniProt P02518 1-213, looked up)
chain: B1 chain with F31A
notes: DmHsp27 (Hsp27), Drosophila melanogaster, with F31A; source: E. coli BL21 (DE3) pLysS, purified (Ni-NTA, SEC on Superose 6)
B10: DmHsp27 S75D (natural protein, Drosophila melanogaster, UniProt P02518 1-213, looked up)
chain: B1 chain with S75D
notes: DmHsp27 (Hsp27), Drosophila melanogaster, with S75D; also called phosphomimetic mutant; source: E. coli BL21 (DE3) pLysS, purified (Ni-NTA, SEC on Superose 6)
B11: DmHsp27 S58D (natural protein, Drosophila melanogaster, UniProt P02518 1-213, looked up)
chain: B1 chain with S58D
notes: DmHsp27 (Hsp27), Drosophila melanogaster, with S58D; also called phosphomimetic mutant; source: E. coli BL21 (DE3) pLysS, purified (Ni-NTA, SEC on Superose 6)
B12: DmHsp27 F29A (natural protein, Drosophila melanogaster, UniProt P02518 1-213, looked up)
chain: B1 chain with F29A
notes: DmHsp27 (Hsp27), Drosophila melanogaster, with F29A; source: E. coli BL21 (DE3) pLysS, purified (Ni-NTA, SEC on Superose 6)
B13: DmHsp27 S58/75D (natural protein, Drosophila melanogaster, UniProt P02518 1-213, looked up)
chain: B1 chain with S58D, S75D
notes: DmHsp27 (Hsp27), Drosophila melanogaster, with S58D and S75D; also called phosphomimetic mutant; source: E. coli BL21 (DE3) pLysS, purified (Ni-NTA, SEC on Superose 6)
B14: DmHsp27 G30R (natural protein, Drosophila melanogaster, UniProt P02518 1-213, looked up)
chain: B1 chain with G30R
notes: DmHsp27 (Hsp27), Drosophila melanogaster, with G30R; source: E. coli BL21 (DE3) pLysS, purified (Ni-NTA, SEC on Superose 6)
B15: DmHsp27 G32R (natural protein, Drosophila melanogaster, UniProt P02518 1-213, looked up)
chain: B1 chain with G32R
notes: DmHsp27 (Hsp27), Drosophila melanogaster, with G32R; source: E. coli BL21 (DE3) pLysS, purified (Ni-NTA, SEC on Superose 6)
B16: DmHsp27 with deletion of the first 86 amino acids of the N-terminal region (Del_Nter) (domain or fragment, Drosophila melanogaster, UniProt P02518 87-213, looked up)
chain: KDGFQVCMDVSQFKPNELTVKVVDNTVVVEGKHEEREDGHGMIQRHFVRKYTLPKGFDPNEVVSTVSSDGVLTLKAPPPPSKEQAKSERIVQIQQTGPAHLSVKAPAPEAGDGKAENGSGEKMETSK
notes: DmHsp27 (Hsp27), Drosophila melanogaster, without the first 86 amino acids (N-terminal region); The Del-NTR forward primer carries an ATG before the codon of residue 87, so an added Met probably precedes residue 87 (surmise); also called DmHsp27Del-NTR; source: E. coli BL21 (DE3) pLysS, purified (Ni-NTA, SEC on Superose 6)
B17: DmHsp27 with deletion of the FGFG motif (29-32) (del_FGFG) (natural protein, Drosophila melanogaster, UniProt P02518 1-213, looked up)
chain: MSIIPLLHLARELDHDYRTDWGHLLEDDVHAHDLFHPRRLLLPNTLGLGRRRYSPYERSHGHHNQMSRRASGGPNALLPAVGKDGFQVCMDVSQFKPNELTVKVVDNTVVVEGKHEEREDGHGMIQRHFVRKYTLPKGFDPNEVVSTVSSDGVLTLKAPPPPSKEQAKSERIVQIQQTGPAHLSVKAPAPEAGDGKAENGSGEKMETSK
notes: DmHsp27 (Hsp27), Drosophila melanogaster, without the four residues F29 to G32 (FGFG); also called deletion FGFG (29–32); DmHsp27Del29-32; source: E. coli BL21 (DE3) pLysS, purified (Ni-NTA, SEC on Superose 6)

This series deals with the molecule itself. In words: native gel or EMSA; 4–12% gradient native Tris-Glycine gel; samples kept and gel run at room temperature (20°C), 150 V, Coomassie blue stain. For orientation: In EMSA bound probe runs differently from free probe, usually more slowly.
On to B1, for which the binding result is listed as “binds”.
For the protein B2, the binding result was “binds”.
For the protein B3, the binding result is recorded as “binds”.
The value for B4 was “binds”; that for B5 was “binds”; that for B6 was “binds”.
Regarding B7, the binding result was “binds”.
For the protein B8, the binding result is reported as “binds”.
The result for B9 reads “binds”.
B10: the binding result is “binds”.
With B11, the binding result is on record as “binds”.
For the protein B12, the binding result is listed as “binds”.
In the case of B13, the binding result was “binds”.
On to B14, for which the binding result was “binds”.
As for B15, the binding result is reported as “binds”.
As to B16, the binding result is “binds”.
As for B17, the binding result is recorded as “binds”.
